Measured values reported in the RNAGym collection of RNA variant scans (doi:10.1073/pnas.2313332121).

B1: TPR t1 (parent)
chain: GACCAAUCUGCCCUCAGAGCUCGAGAACAUCUUCGGAUGCAGAGGAGGCAGGCUUCGGUGGCGCGAUAGCGCCAACGUCCUCAACCUCCAAUGCAUCCCACCACAUGAUGAUGCCUGAAGAGCCUUGGUUUUUUG

Variants of: B1
Assay: polymerase ribozyme fitness, log enrichment relative to wild type (log ratio); higher = more active; in vitro selection for triplet polymerase activity
In short: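 Mutant libraries of each subunit of a heterodimeric triplet polymerase ribozyme were built by PCR and transcribed. Each library went through one round of in vitro selection in triplicate: annealing with biotinylated primer, partner subunit and triplets, frozen incubation at −7 °C, gel excision of extended constructs, streptavidin-bead capture and RT-PCR. Input and output libraries were Illumina-sequenced; only genotypes with ≥10 input reads and ≥1 read per output were kept. Fitness is log2(genotype enrichment/wild-type enrichment), using inverse-variance-weighted replicate averages.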

Row | Variant | polymerase ribozyme fitness (log ratio)
1 | C73U C94U | -0.847
2 | C72A C102A U129A | -2.3
3 | G48C C49G C82U C124A G127C U133C G135U | -0.601
4 | C31G G58U G61A C62G A83U U109A C124U | -6.38
5 | G63A U126A | -2.47
6 | G60U G120A U126A | -0.262
7 | C56U U87C | 0.555
8 | C12G C22A | -4.18
9 | C40U C73U G113A | -1.98
10 | C123G G128C | -0.446
11 | G42U C70G | -4.95
12 | A6C G63A | -0.611
13 | A46G G69C G113A | -3.12
14 | G63U G113U | -4.29
15 | C11G A41U C56A C72U U92G | -1.47
16 | A18C U55G | -1.99
17 | U21A C56U G57C | -0.599
18 | C53A C79A G117U | -4.98
19 | C12U G63C G93U | -1.29
20 | C4G A43U A46G C62U G63A U78C C114U G117U | -5.92
21 | C56G C70U C88U U106A | -2.44

Row | Variant | polymerase ribozyme fitness (log ratio)
22 | C64U C82A A91U G127U | -2.81
23 | C49A G61C C88U G117A G135C | -3.6
24 | C49U C80A U81C U106A U112A | -4.56
25 | G10U C15G G120A | -1.69
26 | C8U G39C G63A U92G | -3.5
27 | A29U G127C | -3.29
28 | A46G U106A | 0.118
29 | C8U C12U C88G | -0.238
30 | C94G C115A A121C | 0.289
31 | A5U C12G G58C A90U C124G G128A | -2.47
32 | C28U U112C | 0.129
33 | A5C G10A U92G | -3.52
34 | G39U U78G | -0.403
35 | C40G A46G C64U | -1.62
36 | G61A C88U G113A G128U | -2.99
37 | C124U U129A | -0.35
38 | G35C G69U C79G U130A | -4.92
39 | A41G C56U C72A G113A G128U | -5.53
40 | G51A G52A G61U C101U | -3.85
41 | C49A G71A | -0.646
42 | G60C A121U | 1.85

Row | Variant | polymerase ribozyme fitness (log ratio)
43 | C70U C89A | -2.09
44 | A18U U112G | -2.46
45 | C49A A50G G52U A105U | -1.36
46 | G60A U87A | -0.0639
47 | U96C C123A | 1.12
48 | C72A G122A | -0.72
49 | C8U C123A U132A | 1.43
50 | G60U C62U G117U | -5.73
51 | G48C A50G C53U C73G | -1.36
52 | C76U C102U | -2.21
53 | G52A U92G | -2.95
54 | C8A A16C G47A C70U G110A U131A | -3.91
55 | G60U G71A U92G C123A | -6.18
56 | A16U U112A | 0.0459
57 | G19A A41U C53A G60C A121U | -5.24
58 | A18U A74U U78C A111C | -4.61
59 | C62U G122U | 0.2
60 | A26G C49G | -2.93
61 | G45U A46C U54C A90G | -1.94
62 | A37U C73U G120C | 1.31
63 | C3U G17U G63U C73U | -4.23

Row | Variant | polymerase ribozyme fitness (log ratio)
64 | A18G G19U C49U C85U G110C U112G | -5.77
65 | C64U C89G | -1.73
66 | C11A G39U | -1.81
67 | A5U C64U G117A | -2.55
68 | U54A C86U C97U C101G | -2
69 | G61C G77A | -4.61
70 | C13G A119G | -0.865
71 | C72A C123A U126G | -0.782
72 | C28U G58C G113C U132C | -4.51
73 | A29G C97U C101A A103U G120A U133G | -7
74 | C8G A16G A90C U96C U112A | 0.488
75 | U9C G17U C72G A83C | -1.63
76 | G113A U116A | -4.71
77 | G19A G44C U96A G120C | -3.85
78 | A5C G113U | -3.73
79 | G35U C101A | -4.48
80 | C34U U78G | -5.06
81 | C12A C72A G120C | 1.29
82 | G47C G63U | -3.66
83 | C53G C97A A119U C123U | -4.34
